Reference: the supplement of paper PMC9170038

System: MS2 coat protein
Experiment: apparent KD of MS2 coat protein; designed switch direction (-1 OFF switch, 1 ON switch): -1; higher = weaker reporter binding
In short: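 The reported apparent KD is a per-design median over clusters, from curve fits of normalised cluster fluorescence. Protein titrations used SNAP-549-labelled MS2 coat protein, doubled from 0.7 or 1.5 nM to 3 µM, in Tris-HCl pH 7.5 buffer with KCl, MgCl2, BSA, DTT, tRNA and Tween-20, with no input, 200 uM small-molecule ligand, or an oligonucleotide input. The RNA switches were transcribed on Illumina chips by stalled E. coli RNA polymerase.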

[1] = Eterna round: R95, input ligand: FMN 200 uM
[2] = Eterna round: R95, input ligand: microRNA oligo, concentration not stated
[3] = Eterna round: R95, input ligand: none
[4] = input ligand: microRNA oligo, concentration not stated

| Sequence | apparent KD of MS2 coat protein [1] | apparent KD of MS2 coat protein [2] | apparent KD of MS2 coat protein [3] | apparent KD of MS2 coat protein (input ligand: FMN 200 uM) | apparent KD of MS2 coat protein [4] | apparent KD of MS2 coat protein (input ligand: none) |
| --- | --- | --- | --- | --- | --- | --- |
| CGUAGUCUUCGGACUACGAACAUGAGGAUCACCCAUGUAAUGAGCAGAUCUUCAUGCAAGCUUUUUGCUCGUCUUAU [Sensor v3 - turn-off variant 1 - 43] (puzzle: Sensor v3, turn-off variant 1) | 148 nM | 14.7 nM | 227 nM |  |  |  |
| UUUUAACAUGAGGAUCACCCAUGUGAGGAUAUGCUAUUUUUUUUUUUUUUUUUUUUUUGCAGAAGGCACAUUUU [My solution] (puzzle: Exclusion 1) | 12.5 nM | 526 nM | 26 nM |  |  |  |
| GCGCACCUACCAAAAGGUAGGCUAACAUGAGGAUCACCCAUGUAGGAUAUCGAUUGCUUUGCAGUCGAGAAGGACGUGAUGCGC [JL ENG3 3.80 Mod 19] (Eterna round: R96, puzzle: Exclusion NG 3) |  |  |  | 25.9 nM | 17.2 nM | 23.3 nM |
| AUGUUAUUGGAAGGAUAUGGUUUACUAUCCUAACAUGAGGAUCACCCAUGUAACCUUAUGUGUAUCCAGAAGGUCCAUAACUUA (Eterna round: R96, puzzle: Exclusion NG 2) |  |  |  | 51.9 nM | 22.8 nM | 32.2 nM |
| AUUGACUGAGGAUAUUGUGCUGCUGACAUGAGGAUCACCCAUGUAUGUUAACUCGGCCGUCGAGAAGGCAGAAAUG [BotMod 20 - Jieux - Exclusion 5] (Eterna round: R97, puzzle: Exclusion 5) |  |  |  | 22.6 nM |  | 28.2 nM |
| ACUAAUUGAGGAUAUACAAGAAUUAACAUGAGGAUCACCCAUGUUCUUAUUUGAAUUAAAGUAGAAGGCAGAAGAA [JR_Ex5_Sub063] (Eterna round: R97, puzzle: Exclusion 5) |  |  |  | 16 nM |  | 28.9 nM |
| CGCAUGUGAGGAUAUUAGUAGUAGUCAGAAUAGACUAUUACUGAGAAGGUACAUGAGGAUCACCCAUGUAUCCG [Eli x4 4.21] (Eterna round: R97, puzzle: Exclusion 4) |  |  |  | 28.5 nM |  | 17.1 nM |
| CACUUACAUGAGGAUCACCCAUGUGAGGAUAUCGUGACCAGACGAGAAGUCUAUGUCACGAGAAGGCACGUGGG [Exclusion 1 (Mod 3.1 solution 97 by Eternabot)] (Eterna round: R97, puzzle: Exclusion 1) |  |  |  | 20.8 nM |  | 811 nM |
| AGCCCUGCAGGAUAUGCCCGGGAUAACAUGAGGAUCACCCAUGUGACUGAUUGUUAUUCUGCAGAAGGGCAUGGGA [JL-EX5-4.14 ViennaUCT mod] (Eterna round: R97, puzzle: Exclusion 5) |  |  |  | 335 nM |  | 494 nM |
| GCCAGAGCAGGAUAUUCAAUAAUUCACAUGAGGAUCACCCAUGUCCAGCGAAAGCUAGGAGGAGAAGGGCUCUGGC [Fiskers Ex 5 - 4] (puzzle: Exclusion 5) | 15.2 nM | 17.2 nM | 17.8 nM |  |  |  |
| UAAUUGUGAGGAUAUUCGUUUUUCACGGAGACGUGAAGAACGGAGAAGGCACAUGAGGAUCACCCAUGUUCCUU [Mat - Exclusion 4 - JL Mod - D15] (Eterna round: R97, puzzle: Exclusion 4) |  |  |  | 89.3 nM |  | 19.5 nM |
| ACAAGCUUUUUGUUCGUCUUAUAAUAAUAAAUAAAUAUAACAUGAGGAUCACCCAUGUUGAGAAGACGGCCUCAUGU [Sesor Array 22 - Jieux - Sensor v3, turn-off variant 2] (puzzle: Sensor v3, turn-off variant 2) | 134 nM | 31.8 nM | 203 nM |  |  |  |
| AUGCGUGGCUAGGAUAUUGAGGAAUUUAGCCAGCGAGAAGGAGCCACAUGAGGAUCACCCAUGUGGUGAACCUC [jl-ex6-4.60 ViennaUCT mod] (Eterna round: R97, puzzle: Exclusion 6) |  |  |  | 17.7 nM |  | 18.5 nM |
| CUGAGCAGACGGAGAUCCAACAUGAGGAUCACCCAUGUCUCAAAAGCUUUUUGCUUGUCUUAUCCUCCUCUGUUCUC [Xegean] (puzzle: Sensor v3, turn-off variant 1) | 14.6 nM | 248 nM | 12.7 nM |  |  |  |
| GAUUAUGCGAGCUUUAGGGACAUGAGGAUCACCCAUGUUCGUCUUAUUAGUCUGGGUGCACUAACAUACCUAAAUCU [JMF 37] (puzzle: Sensor v3, turn-off variant 1) | 135 nM | 81.4 nM | 153 nM |  |  |  |
| CCAGCGUAUGUGAGGAUAUGCUGGUCCUUGGAUCAGCAGAAGGCACAUGAGGAUCACCCAUGUGAUGACGUUGG [JL bmx4 3.40] (puzzle: Brourd's mod of Exclusion 4) |  | 42.6 nM |  |  |  |  |
| AUUAAGCAGCAGGAUAUAAUUAUCUGAAGGUGGUUAGAAGGGCUGACAUGAGGAUCACCCAUGUGCUCUUCGUG [Diries] (puzzle: Exclusion 6) |  | 14.7 nM |  |  |  |  |

| Sequence | apparent KD of MS2 coat protein [1] | apparent KD of MS2 coat protein [2] | apparent KD of MS2 coat protein [3] | apparent KD of MS2 coat protein (input ligand: FMN 200 uM) | apparent KD of MS2 coat protein [4] | apparent KD of MS2 coat protein (input ligand: none) |
| --- | --- | --- | --- | --- | --- | --- |
| GGUGCGUAUGUGAGGAUAUGCUGGUCCUUGGCUCGGCAGAAGGCACAUGAGGAUCACCCAUGUGGUGUCGUGCC [salish99_Bmod_ex4_056] (puzzle: Brourd's mod of Exclusion 4) |  | 15.3 nM |  |  |  |  |
| CUAACAUGCUGGUGAUCAUACAUGAGGAUCACCCAUGUAACAAGCUUUUUGCUCGUCUUAUAAGAUCACCAGCAUGU [Stov1/9-A4] (Eterna round: R97, puzzle: Sensor, turn-off variant 1) |  |  |  | 16.2 nM |  | 15.5 nM |
| UAUUAACAAGCUUGAUCCCACAUGAGGAUCACCCAUGUGCUCGUCUUAUAAGGUACUGUGACGAAAGUCACGGUACC [Sensor 3, v1 - 86] (puzzle: Sensor v3, turn-off variant 1) | 89.9 nM | 206 nM | 91.2 nM |  |  |  |
| UUGUAGCAGGCCUUCGAGUACAUGAGGAUCACCCAUGUCGUGCCUGAAAUCUCAGAGACAGGUGGCUCGUCUUAGGC [Eternabot (L1) Solution 32] (Eterna round: R97, puzzle: Sensor, turn-off variant 1) |  |  |  | 21.2 nM |  | 16.9 nM |
| AGUAGGUCUACCUUGGUGGAUCUGCAUUAUGCAAGUGUUACAUGAGGAUCACCCAUGUCCUCAUUUGCUCGUCUUAU [JL turnoff v2 99.23] (puzzle: Sensor v3, turn-off variant 2) | 37.1 nM | 130 nM | 36.2 nM |  |  |  |
| UAGCACGGAGGAUAUUGGCUCGCACACAUGAGGAUCACCCAUGUGACUUUAUACUUCCGCUAAGAAGGCCGUGUGG [Eternabot (L1) Solution 93] (Eterna round: R97, puzzle: Exclusion 5) |  |  |  | 13.2 nM |  | 14.3 nM |
| AAAAGGUAAGGAUAUACAUGCCCAAAACACGUCCUCAGUCCACAUGAGGAUCACCCAUGUAGAAGGUACGAAAA [Ribiesdi] (Eterna round: R97, puzzle: Exclusion 2) |  |  |  | 285 nM |  | 93.2 nM |
| CACCGUUAGUGAGGAUAUCUUACAUGAGGAUCACCCAUGUAAUAAAUGAGAAUUUCGGAUGUAUGAGAGAAGGCACAAAUCGGC [Ostricism 53 - Jieux - Exclusion NG 2] (Eterna round: R96, puzzle: Exclusion NG 2) |  |  |  | 21.2 nM | 18.5 nM | 22.7 nM |
| UGUGCGUAUGUGAGGAUAUGCUGGUCCUUGGAUCGGCAGAAGGCACAUGAGGAUCACCCAUGUGGUGUCGUUCA [salish99_Bmod_ex4_098] (puzzle: Brourd's mod of Exclusion 4) |  | 208 nM |  |  |  |  |
| GGAGAAGUAGGAUAUACAUGAGGAUCACCCAUGUUUUAAUUAAUAUAUGGAAUAGUAAGUAGAAGGAUUAAGUU [A finsh] (Eterna round: R97, puzzle: Exclusion 3) |  |  |  | 35.4 nM |  | 38.4 nM |
| AUGAGGUUAGGAUAUACAUGAGGAUCACCCAUGUUGGAGGGUAAGGUAGGAGAAGAAAGUAGAAGGAACGGAGC [JR_Exclu3_Sub058] (puzzle: Exclusion 3) | 68.4 nM | 82.5 nM | 99.6 nM |  |  |  |
| GUCAGCUCGUCAGGAUAUACAUGAGGAUCACCCAUGUGAUCAAUAGCAGCUUCGGCUGCAUUAAUGUAGAAGGGACGAGCUGAU [ENG2/5-B2] (Eterna round: R96, puzzle: Exclusion NG 2) |  |  |  |  | 168 nM |  |
| AGCUGUGAGCGAGGAUAUCUGCUGUUUUCGGUCGGAGAAGGCGCGGACAGAACAUGAGGAUCACCCAUGUGUAUGGGCGGCCUC [Xexeenve] (Eterna round: R96, puzzle: Exclusion NG 1) |  |  |  | 119 nM | 44.5 nM | 73.7 nM |
| UUUUUAUAAGGAUAUAUGUGGAUAAUUUUUAUAUGAAAAUUACAUGAGGAUCACCCAUGUAGAAGGUAUGGAGG [-13.9, -11.8 kcal, 35% A] (Eterna round: R97, puzzle: Exclusion 2) |  |  |  | 24 nM |  | 39.2 nM |
| CCGUGGCAAGGAUAUACGUAGGAGAGGAAGGCAAGAGGAGGACAUGAGGAUCACCCAUGUAGAAGGUGCAGAUC [JR_Exclu2_Sub029] (puzzle: Exclusion 2) | 62.3 nM | 77.4 nM | 94.5 nM |  |  |  |
| UGCAGACGAGGAUAUAGAUUUAAGUACAUGAGGAUCACCCAUGUACAUAUGUAUUUAGAUUUAGAAGGCGUCUGCA [E5/16-A2] (Eterna round: R97, puzzle: Exclusion 5) |  |  |  | 28.2 nM |  | 27.7 nM |
| CUCAUGUAAGGAUAUUGGCACAUGGAACCUGCUGGUUCUGAUAAGAAGGUACAUGAGGAUCACCCAUGUCCUCG [Eternabot (L2) Solution 89] (Eterna round: R97, puzzle: Exclusion 4) |  |  |  | 48.7 nM |  | 47.5 nM |
